Assay results published in publication doi:10.1101/325712 (bioRxiv, 2018).
Square brackets hold non-standard residues; d marks the D form. Ends that are not written are not given here. pS = N[C@@H](COP(=O)(O)O)C(=O)O

What was measured:
[1] = molecular target: T1, human FLNC domains 18-21 (residues 1943-2408), EEF-tagged (human, UniProt Q14315 1943-2408); assay: native MS
T1 sequence: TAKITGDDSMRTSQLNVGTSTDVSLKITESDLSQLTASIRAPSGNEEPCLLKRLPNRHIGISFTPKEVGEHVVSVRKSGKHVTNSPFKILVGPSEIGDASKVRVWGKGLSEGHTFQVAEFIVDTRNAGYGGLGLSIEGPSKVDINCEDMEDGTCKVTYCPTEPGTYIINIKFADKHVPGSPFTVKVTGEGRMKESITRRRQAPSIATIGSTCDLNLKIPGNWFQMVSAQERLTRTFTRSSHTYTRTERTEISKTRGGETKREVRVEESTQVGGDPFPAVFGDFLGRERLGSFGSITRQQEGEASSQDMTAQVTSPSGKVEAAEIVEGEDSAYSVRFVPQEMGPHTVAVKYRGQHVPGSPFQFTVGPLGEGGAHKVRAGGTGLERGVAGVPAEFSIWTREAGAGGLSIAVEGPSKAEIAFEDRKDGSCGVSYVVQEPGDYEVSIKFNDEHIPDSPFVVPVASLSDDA

[2] = molecular target: human HspB1 ACD (residues 84-170) (human, UniProt P04792 84-170); assay: crystal structure
human HspB1 ACD (residues 84-170), sequence (P04792 84-170): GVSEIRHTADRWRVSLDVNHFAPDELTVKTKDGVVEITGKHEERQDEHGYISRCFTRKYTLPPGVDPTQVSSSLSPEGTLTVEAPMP

## Ac-QLSSGVSEI (not fully specified) [HspB1 peptide residues 80-88, phosphorylated]
[1]
  Kd: 110 ± 10 µM

## ALSRQL[pS]SGVSEI [HspB1 peptide residues 76-88 phosphorylated at Ser82]
[2]
  binding result: binds

## Ac-QLSSGVSEI [HspB1 peptide residues 80-88, unphosphorylated]
[1]
  Kd: 130 ± 17 µM
